Results reported in the Human Domainome abundance scans (Beltran et al. 2025).
± gives the uncertainty stated by the source.

B1: POU domain, class 2, transcription factor 1, residues 285 to 354; numbered along this chain, P14859 (parent)
chain: LEELEQFAKTFKQRRIKLGFTQGDVGLAMGKLYGNDFSQTTISRFEALNLSFKNMCKLKPLLEKWLNDAE

Variants of: B1
Test: abundance fitness (aPCA) (normalised: wild type 0, dead -1); higher = more abundant; growth selection in yeast, the domain comes from the species named
Settings: Homo sapiens

| Variant | abundance fitness |
| --- | --- |
| LEELEQFAKTFKQRRIKLGFTQGDVGLAMGKLYGNDFSQTTISRFEALNLSFKNMCKLKPLLEKILNDAE | -0.633 ± 0.44 |
| LEELEQFAKTFKQRRIKLGFTQGDVGLAMGKLYGNDFSQTTISRFEALNLSFKNMCKLKPLLEKHLNDAE | -0.5 ± 0.18 |
| LEELEQFAKTFKQRRIKLGFTQGDVGLAMGKLYGNDFSQTTISRFEALNLSFKNMCKLKPLLEKVLNDAE | -0.262 ± 0.073 |
| LEELEQFAKTFKQRRIKLGFTQGDVGLAMGKLYGNDFSQTTISRFEALNLSFKNMCKLKPLLEKSLNDAE | -0.728 ± 0.062 |
| LEELEQFAKTFKQRRIKLGFTQGDVGLAMGKLYGNDFSQTTISRFEALNLSFKNMCKLKPLLEKLLNDAE | -0.305 ± 0.07 |
| LEELEQFAKTFKQRRIKLGFTQGDVGLAMGKLYGNDFSQTTISRFEALNLSFKNMCKLKPLLEKWLNGAE | -0.011 ± 0.019 |
| LEELEQFAKTFKQRRIKLGFTQGDVGLAMGKLYGNDFSQTTISRFEALNLSFKNMCKLKPLLEKWLNAAE | -0.024 ± 0.023 |
| LEELEQFAKTFKQRRIKLGFTQGDVGLAMGKLYGNDFSQTTISRFEALNLSFKNMCKLKPLLEKWLNVAE | -0.047 ± 0.027 |
| LEELEQFAKTFKQRRIKLGFTQGDVGLAMGKLYGNDFSQTTISRFEALNLSFKNMCKLKPLLEKWLNNAE | 0.006 ± 0.024 |
| LEELEQFAKTFKQRRIKLGFTQGDVGLAMGKLYGNDFSQTTISRFEALNLSFKNMCKLKPLLEKWLNMAE | -0.034 ± 0.022 |
| LEELEQFAKTFKQRRIKLGFTQGDVGLAMGKLYGNDFSQTTISRFEALNLSFKNMCKLKPLLEKWLNPAE | -0.419 ± 0.035 |
| LEELEQFAKTFKQRRIKLGFTQGDVGLAMGKLYGNDFSQTTISRFEALNLSFKNMCKLKPLLEKWLNFAE | -0.011 ± 0.08 |
| LEELEQFAKTFKQRRIKLGFTQGDVGLAMGKLYGNDFSQTTISRFEALNLSFKNMCKLKPLLEKWLNTAE | -0.048 ± 0.024 |
| LEELEQFAKTFKQRRIKLGFTQGDVGLAMGKLYGNDFSQTTISRFEALNLSFKNMCKLKPLLEKWLNCAE | -0.106 ± 0.058 |
| LEELEQFAKTFKQRRIKLGFTQGDVGLAMGKLYGNDFSQTTISRFEALNLSFKNMCKLKPLLEKWLNYAE | -0.063 ± 0.033 |
| LEELEQFAKTFKQRRIKLGFTQGDVGLAMGKLYGNDFSQTTISRFEALNLSFKNMCKLKPLLEKWLNKAE | -0.018 ± 0.016 |
| LEELEQFAKTFKQRRIKLGFTQGDVGLAMGKLYGNDFSQTTISRFEALNLSFKNMCKLKPLLEKWLNSAE | 0.026 ± 0.029 |
| LEELEQFAKTFKQRRIKLGFTQGDVGLAMGKLYGNDFSQTTISRFEALNLSFKNMCKLKPLLEKWLNRAE | -0.022 ± 0.021 |
| LEELEQFAKTFKQRRIKLGFTQGDVGLAMGKLYGNDFSQTTISRFEALNLSFKNMCKLKPLLEKWLNWAE | -0.086 ± 0.028 |
| LEELEQFAKTFKQRRIKLGFTQGDVGLAMGKLYGNDFSQTTISRFEALNLSFKNMCKLKPLLEKWLNHAE | -0.012 ± 0.05 |

| Variant | abundance fitness |
| --- | --- |
| LEELEQFAKTFKQRRIKLGFTQGDVGLAMGKLYGNDFSQTTISRFEALNLSFKNMCKLKPLLEKWLNQAE | 0.001 ± 0.023 |
| LEELEQFAKTFKQRRIKLGFTQGDVGLAMGKLYGNDFSQTTISRFEALNLSFKNMCKLKPLLEKWMNDAE | 0.01 ± 0.033 |
| LEELEQFAKTFKQRRIKLGFTQGDVGLAMGKLYGNDFSQTTISRFEALNLSFKNMCKLKPLLEKWTNDAE | -0.206 ± 0.052 |
| LEELEQFAKTFKQRRIKLGFTQGDVGLAMGKLYGNDFSQTTISRFEALNLSFKNMCKLKPLLEKWENDAE | -0.433 ± 0.039 |
| LEELEQFAKTFKQRRIKLGFTQGDVGLAMGKLYGNDFSQTTISRFEALNLSFKNMCKLKPLLEKWQNDAE | -0.279 ± 0.056 |
| LEELEQFAKTFKQRRIKLGFTQGDVGLAMGKLYGNDFSQTTISRFEALNLSFKNMCKLKPLLEKWVNDAE | -0.003 ± 0.023 |
| LEELEQFAKTFKQRRIKLGFTQGDVGLAMGKLYGNDFSQTTISRFEALNLSFKNMCKLKPLLEKWWNDAE | -0.355 ± 0.043 |
| LEELEQFAKTFKQRRIKLGFTQGDVGLAMGKLYGNDFSQTTISRFEALNLSFKNMCKLKPLLEKWGNDAE | -0.411 ± 0.033 |
| LEELEQFAKTFKQRRIKLGFTQGDVGLAMGKLYGNDFSQTTISRFEALNLSFKNMCKLKPLLEKWSNDAE | -0.167 ± 0.039 |
| LEELEQFAKTFKQRRIKLGFTQGDVGLAMGKLYGNDFSQTTISRFEALNLSFKNMCKLKPLLEKWYNDAE | -0.11 ± 0.084 |
| LEELEQFAKTFKQRRIKLGFTQGDVGLAMGKLYGNDFSQTTISRFEALNLSFKNMCKLKPLLEKWKNDAE | -0.476 ± 0.028 |
| LEELEQFAKTFKQRRIKLGFTQGDVGLAMGKLYGNDFSQTTISRFEALNLSFKNMCKLKPLLEKWFNDAE | -0.258 ± 0.057 |
| LEELEQFAKTFKQRRIKLGFTQGDVGLAMGKLYGNDFSQTTISRFEALNLSFKNMCKLKPLLEKWCNDAE | -0.071 ± 0.068 |
| LEELEQFAKTFKQRRIKLGFTQGDVGLAMGKLYGNDFSQTTISRFEALNLSFKNMCKLKPLLEKWRNDAE | -0.667 ± 0.046 |
| LEELEQFAKTFKQRRIKLGFTQGDVGLAMGKLYGNDFSQTTISRFEALNLSFKNMCKLKPLLEKWNNDAE | -0.848 ± 0.17 |
| LEELEQFAKTFKQRRIKLGFTQGDVGLAMGKLYGNDFSQTTISRFEALNLSFKNMCKLKPLLEKWHNDAE | -0.474 ± 0.11 |
| LEELEQFAKTFKQRRIKLGFTQGDVGLAMGKLYGNDFSQTTISRFEALNLSFKNMCKLKPLLEKWINDAE | -0.017 ± 0.046 |
| LEELEQFAKTFKQRRIKLGFTQGDVGLAMGKLYGNDFSQTTISRFEALNLSFKNMCKLKPLLEKWANDAE | -0.037 ± 0.038 |
| LEELEQFAKTFKQRRIKLGFTQGDVGLAMGKLYGNDFSQTTISRFEALNLSFKNMCKLKPLLEKWDNDAE | -0.854 ± 0.073 |
